Source: the supplement of paper PMC9170038

Test system: MS2 coat protein
Assay: apparent KD of MS2 coat protein; designed switch direction (-1 OFF switch, 1 ON switch): -1; higher = weaker reporter binding
Summary of the method: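 Three titration conditions were used: no input, 200 uM small-molecule ligand, and an oligonucleotide input. In each, SNAP-549-labelled MS2 coat protein was raised from 0.7 or 1.5 nM, doubling, to 3 µM over designed RNA switches transcribed on Illumina chips by stalled E. coli RNA polymerase. Curve fits of normalised cluster fluorescence gave values whose per-design median over clusters is the apparent KD.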

[1] = Eterna round: R95, input ligand: microRNA oligo, concentration not stated
[2] = input ligand: microRNA oligo, concentration not stated
[3] = Eterna round: R95, input ligand: FMN 200 uM
[4] = Eterna round: R95, input ligand: none

Sequence | apparent KD of MS2 coat protein [1] | apparent KD of MS2 coat protein (input ligand: FMN 200 uM) | apparent KD of MS2 coat protein (input ligand: none) | also measured
CUUUUGGGAGGAUAUUAGUAGUAAAUAAAUAAAAUUACUACUGAGAAGGCACAUGAGGAUCACCCAUGUUCCUC [salish99_ex4_r3_071] (puzzle: Exclusion 4) | 19.7 nM | – | – | –
CUUUUGUGAGGAUAUCAGUAGUAAAAAAAUAAAAUUAUUACUGAGAAGGCACAUGAGGAUCACCCAUGUUCCUC [salish99_ex4_r3_028] (puzzle: Exclusion 4) | 36.3 nM | – | – | –
CUUUUGUGAGGAUAUCAGUAGUAAAAAAAUUAAAUUACUACUGAGAAGGCACAUGAGGAUCACCCAUGUUCCUC [salish99_ex4_r3_022] (puzzle: Exclusion 4) | 36.4 nM | – | – | –
CUUUUGUGAGGAUAUCAGUAGUAAAUAAAUAAAAUUACUACUGAGAAGGCACAUGAGGAUCACCCAUGUUCCUC [salish99_ex4_r3_015] (puzzle: Exclusion 4) | 37.4 nM | – | – | –
CUUUUGUGAGGAUAUCUGGCUUCGAUCGUGAGAUCGAGGCUAGAGAAGGCACAUGAGGAUCACCCAUGUUCCUU [jl-ex4-4.05 salish99 mod] (Eterna round: R97, puzzle: Exclusion 4) | – | 66.1 nM | 19.9 nM | –
CUUUUGUGAGGAUAUUAGUAGUAAAAAAAUAAAAUUACUACUGAGAAGGCACAUGAGGAUCACCCAUGUUCCUC [salish99_ex4_r3_036] (puzzle: Exclusion 4) | 33.2 nM | – | – | –
CUUUUGUGAGGAUAUUAGUAGUAAAAAAAUAAAAUUACUACUGAGAAGGCACAUGAGGAUCACCCAUGUUCCUU [salish99_ex4_r3_039] (puzzle: Exclusion 4) | 14.1 nM | – | – | –
CUUUUGUGAGGAUAUUAGUAGUAAAUAAAUAAUAUUACUACUGAGAAGGCACAUGAGGAUCACCCAUGUUCCUC [salish99_ex4_r3_059] (puzzle: Exclusion 4) | 38.8 nM | – | – | –
CUUUUGUGAGGAUAUUGGUAGUAAAUAAAUAAAAUUAUUACCGAGAAGGUACAUGAGGAUCACCCAUGUUCCUC [Salish 062 v18] (Eterna round: R97, puzzle: Exclusion 4) | – | 32.1 nM | 18.2 nM | –
GAAAAACAUGAGGAUCACCCAUGUAAGGAUAUGCUGAAAAACACGGAAAAAACGUGCAGCAGAAGGUACAAAAG [Mat - Exclusion 1 - Eli mod - D91] (Eterna round: R96, puzzle: Exclusion 1) | – | 107 nM | 71.1 nM | apparent KD of MS2 coat protein [2]: 44.8 nM
GAAAACGCAGGAUAUUAAUACUUAUACAUGAGGAUCACCCAUGUUUAUUGGGAUUAAGAAUAAGAAGGGCGAUGAA [EX5 #1] (Eterna round: R97, puzzle: Exclusion 5) | – | 30.8 nM | 24 nM | –
GAAAACGGAGAGGAUAUUUGAGAUCAAAGCUCCAAAGAAGGCUCCACAUGAGGAUCACCCAUGUGGUCUUCAAG [Mat - Exclusion 6 - JL Mod - D14] (Eterna round: R97, puzzle: Exclusion 6) | – | 86.7 nM | 17 nM | –
GAAAAGCGAGGAUAUACUUGCAGUGUACCUCGGGUGAUCUCACUUGAGGAUCACCCAAGUAGAAGGCGCGAGGG [Quletibe] (Eterna round: R97, puzzle: Exclusion 2) | – | 4.5 nM | 45.2 nM | –
GAAAAGGUAGGAUAUACGAAAAAAAAGGGUAGAAAAAAAACACAUGAGGAUCACCCAUGUAGAAGGACCAGAAG [salish99_ex2_r3_038] (puzzle: Exclusion 2) | 27.9 nM | – | – | apparent KD of MS2 coat protein [3]: 72.8 nM; apparent KD of MS2 coat protein [4]: 17.3 nM
GAAAAGGUAGGAUAUACGAAAAAAAAGGGUAGAAAAAUAACACAUGAGGAUCACCCAUGUAGAAGGACCAAAAG [salish99_ex2_r3_074] (puzzle: Exclusion 2) | 23 nM | – | – | apparent KD of MS2 coat protein [3]: 111 nM; apparent KD of MS2 coat protein [4]: 29 nM
GAAAAGGUAGGAUAUACGAAAAAAAAGGGUAGAAAGAAAACACAUGAGGAUCACCCAUGUAGAAGGACCAAAAG [salish99_ex2_r3_017] (puzzle: Exclusion 2) | 27.3 nM | – | – | apparent KD of MS2 coat protein [3]: 66.1 nM; apparent KD of MS2 coat protein [4]: 20.7 nM
GAAAAGUGAGGAUAUCGACAUCUCGACAUGAGGAUCACCCAUGUUGUAGGUCGUGUCGAGCGAGAAGGCACAAUAA [EX5 B.9] (Eterna round: R97, puzzle: Exclusion 5) | – | 48.2 nM | 15 nM | –
GAAAGAGUUCAGGAUAUCAGAGUCCAGCGACACUGAGAAGGGAAAACAUGAGGAUCACCCAUGUGGUCCUAAGC [Eternabot (L2) Solution 80] (Eterna round: R97, puzzle: Exclusion 6) | – | 348 nM | 105 nM | –

Sequence | apparent KD of MS2 coat protein [1] | apparent KD of MS2 coat protein (input ligand: FMN 200 uM) | apparent KD of MS2 coat protein (input ligand: none) | also measured
GAACCGCGAGGAUAUACAGUCGAGUCUAUUACGUGUCUCGGACUUGAGGAUCACCCAAGUAGAAGGCGUCUCAG [salish99_ex2_r4_635] (Eterna round: R97, puzzle: Exclusion 2) | – | 54.5 nM | 56.2 nM | –
GAACUGAGGCAAAGCUUUAGUCGUACAUGAGGAUCACCCAUGUAGGAUAUGGUAGGCUUUGCUUACCAGAAGGACAGAGUGAUC [Mat - Exclusion NG 3 - Mod of JL - D59] (Eterna round: R96, puzzle: Exclusion NG 3) | – | – | – | apparent KD of MS2 coat protein [2]: 76.3 nM
GAAGAAGAGAGAAUAGAAAACAUGAGGAUCACCCAUGUGAGAAGAUGAGGGUGUAAUAGGCUUUUUGCUCGUCUUAU (puzzle: Sensor v3, turn-off variant 1) | 94.4 nM | – | – | apparent KD of MS2 coat protein [3]: 42.7 nM; apparent KD of MS2 coat protein [4]: 56 nM
GAAGAGACAGGAUAUACAUGAGGAUCACCCAUGUGAGGAGGUUGGAGGCGGAGGAGGUGUAGAAGGGUCAAAGA [JR_Exclu3_Sub021] (puzzle: Exclusion 3) | 29.7 nM | – | – | apparent KD of MS2 coat protein [3]: 41.6 nM; apparent KD of MS2 coat protein [4]: 38.8 nM
GAAGAGACAGGAUAUACAUGAGGAUCACCCAUGUGAGUAAGGUAGAGGCGGAGGAGAUGUAGAAGGGUCAAAGA [JR_Exclu3_Sub016] (puzzle: Exclusion 3) | 35.6 nM | – | – | apparent KD of MS2 coat protein [3]: 49.9 nM; apparent KD of MS2 coat protein [4]: 41.5 nM
GAAGAGACAGGAUAUACAUGAGGAUCACCCAUGUGAGUAUGUUAGAGGCGGAGGAGAUGUAGAAGGGUCAAAGA [JR_Exclu3_Sub017] (puzzle: Exclusion 3) | 19.6 nM | – | – | apparent KD of MS2 coat protein [3]: 39.9 nM; apparent KD of MS2 coat protein [4]: 31.6 nM
GAAGCACAUGAGGAUCACCCAUGUGAGGAUAUCCGUCUGGUCCGGCCGGACCAGUACCGGAGAAGGCGCGUAAA [Excls1-Ia] (puzzle: Exclusion 1) | 40.1 nM | – | – | –
GAAGUCGACUAGGAUAUUACAGGCUCAUGCCGUUGAGAAGGAGUGACAUGAGGAUCACCCAUGUCCUCAAGCGC [Eternabot (Original) Solution 48] (Eterna round: R97, puzzle: Exclusion 6) | – | 20.3 nM | 16.2 nM | –
GAAUAGAGAGGAUAUGCAAUGUAGGUAGUACGAUAUAUCUGACAUGAGGAUCACCCAUGUAGAAGGCUCAGAUC [EX2 #7] (Eterna round: R97, puzzle: Exclusion 2) | – | 40.4 nM | 37.9 nM | –
GAAUGAGAGCAGGAUAUCUUAUAAAUGUAUGGAAGAGAAGGGCUCACAUGAGGAUCACCCAUGUGGUCCUAGAU [jl-ex6-4.70 jandersonlee mod] (Eterna round: R97, puzzle: Exclusion 6) | – | 215 nM | 36.5 nM | –
GAAUUAAUUAAUUAAUAAUACAUGAGGAUCACCCAUGUAGAUCCUACAUACAAGCUUUGUAGCUCGUCUUAUAAUUA [Stov1/3-A2] (Eterna round: R97, puzzle: Sensor, turn-off variant 1) | – | 330 nM | 480 nM | –
GACAUCGCAGGAUAUUAGAGUUUUUACAUGAGGAUCACCCAUGUUAAUUGGGUUAAUGUCUAAGAAGGGCGAUGUC [JR_EX5_Sub015] (Eterna round: R97, puzzle: Exclusion 5) | – | 113 nM | 49.4 nM | –
GACCGGGCAGGAUAUACAAAACCUCGGUGUAUUUUGGACCGACAUGAGGAUCACCCAUGUAGAAGGGCCUAAGG [Eternabot (Original) Solution 4] (Eterna round: R97, puzzle: Exclusion 2) | – | 34.2 nM | 23.6 nM | –
GACUAAACACGAGGAUAUGCCUGGGAAGAACAGGCAGAAGGCGUGACAUGAGGAUCACCCAUGUAGCCGGGCUAUUCUCGUACG [Tirearerar] (Eterna round: R96, puzzle: Exclusion NG 1) | – | 30.8 nM | 30.3 nM | apparent KD of MS2 coat protein [2]: 24.7 nM
GACUAAAUUUUGUUUGGUUACAUGAGGAUCACCCAUGUUGGUCUAAGAACAUGUCUUUUGUACGCUUGUCUUAUAUA [JR_SV3TOV1_Sub068] (puzzle: Sensor v3, turn-off variant 1) | 45.8 nM | – | – | apparent KD of MS2 coat protein [3]: 76.6 nM; apparent KD of MS2 coat protein [4]: 96.3 nM
GACUAGGCAGGAUAUACAUGAGGAUCACCCAUGUGUCUGCGAUAGGCACGUGAUUACUGUAGAAGGGCCUUGAC [Exclusion 3 - mod of a parushev design] (puzzle: Exclusion 3) | 204 nM | – | – | –
GACUAGGCAGGAUAUACAUGAGGAUCACCCAUGUGUCUGCGUUGGGCACGUGAACACCGUAGAAGGGCCUUGAC [ChP 13.04.2015 #14] (Eterna round: R96, puzzle: Exclusion 3) | – | 36.4 nM | 20.2 nM | apparent KD of MS2 coat protein [2]: 16.2 nM
GACUAGGCAGGAUAUACAUGAGGAUCACCCAUGUGUCUGCGUUGGGCACGUGAACACCGUAGAAGGGCCUUGAC [ChP 13.04.2015 #14] (puzzle: Exclusion 3) | 14.4 nM | – | – | –
